Data published in publication doi:10.1101/779439.

Target: peptide of CD3 zeta chain containing SNID2 (residues 115-135)
Test: ITC

| Substance | Kd |
| --- | --- |
| HIV-2 consensus Nef core domain (residues 90-256) (domain or fragment) | 12 µM |
| SIVmac239 Nef full core domain (residues 90-263), His-tagged, as used for ITC (domain or fragment) | 5 µM |
